Test results as given in patent US20230158141A1 (YAFEI SHANGHAI BIOLOG MEDICINE SCIENCE AND TECHNOLOGY, published 2023).

Tests used:
[1] = target: PD-1 (UniProt Q15116 25-167, limits assumed); assay: ELISA, conjugate vs WT antibody
[2] = target: T1, CTLA-4 (UniProt P16410 36-162, limits assumed); assay: ELISA, OD mutant/OD WT; B=70-90%
[3] = target: T1, CTLA-4; assay: ELISA, OD mutant/OD WT; ↓=less than 70%
[4] = target: T1, CTLA-4; assay: ELISA, conjugate vs WT antibody

Sequence of PD-1 (Q15116 25-167 limits assumed): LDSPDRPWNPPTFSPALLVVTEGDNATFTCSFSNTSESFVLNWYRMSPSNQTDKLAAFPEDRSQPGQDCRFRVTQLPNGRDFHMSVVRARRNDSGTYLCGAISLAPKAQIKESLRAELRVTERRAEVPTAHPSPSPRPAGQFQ
T1 sequence (P16410 36-162 limits assumed): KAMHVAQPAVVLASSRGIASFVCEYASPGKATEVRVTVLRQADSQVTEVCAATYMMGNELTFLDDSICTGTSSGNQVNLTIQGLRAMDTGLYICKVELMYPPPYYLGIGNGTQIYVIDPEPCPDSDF

B1: anti-PD-1 antibody 2 heavy chain A61C-R4-4 (antibody, human IgG4 S228P, kappa, V domains shown)
VH: QVQLVESGGGVVQPGRSLRLDCKASGITFSNSGMHWVRQAPGKGLEWVAVIWYDGSKRYYCDSVKGRFTISRDNSKNTLFLQMNSLRAEDTAVYYCATNDDYWGQGTLVTVSS
VL: EIVLTQSPATLSLSPGERATLSCRASQSVSSYLAWYQQKPGQAPRLLIYDASNRATGIPARFSGSGSGTDFTLTISSLEPEDFAVYYCQQSSNWPRTFGQGTKVEIKR
modifications: R4-4 on Cys 61
- binding activity (% of WT) [1]: 83.9%

B2: anti-PD-1 antibody 2 heavy chain K57C-R4-7 (antibody, human IgG4 S228P, kappa, V domains shown)
VH: QVQLVESGGGVVQPGRSLRLDCKASGITFSNSGMHWVRQAPGKGLEWVAVIWYDGSCRYYADSVKGRFTISRDNSKNTLFLQMNSLRAEDTAVYYCATNDDYWGQGTLVTVSS
VL: EIVLTQSPATLSLSPGERATLSCRASQSVSSYLAWYQQKPGQAPRLLIYDASNRATGIPARFSGSGSGTDFTLTISSLEPEDFAVYYCQQSSNWPRTFGQGTKVEIKR
modifications: R4-7 on Cys 57
- binding activity (% of WT) [1]: 89.7%

B3: anti-PD-1 antibody 2 heavy chain K65C-R4-7 (antibody, human IgG4 S228P, kappa, V domains shown)
VH: QVQLVESGGGVVQPGRSLRLDCKASGITFSNSGMHWVRQAPGKGLEWVAVIWYDGSKRYYADSVCGRFTISRDNSKNTLFLQMNSLRAEDTAVYYCATNDDYWGQGTLVTVSS
VL: EIVLTQSPATLSLSPGERATLSCRASQSVSSYLAWYQQKPGQAPRLLIYDASNRATGIPARFSGSGSGTDFTLTISSLEPEDFAVYYCQQSSNWPRTFGQGTKVEIKR
modifications: R4-7 on Cys 65
- binding activity (% of WT) [1]: 92.1%

B4: anti-PD-1 antibody 2 heavy chain S30C-R4-1 (antibody, human IgG4 S228P, kappa, V domains shown)
VH: QVQLVESGGGVVQPGRSLRLDCKASGITFCNSGMHWVRQAPGKGLEWVAVIWYDGSKRYYADSVKGRFTISRDNSKNTLFLQMNSLRAEDTAVYYCATNDDYWGQGTLVTVSS
VL: EIVLTQSPATLSLSPGERATLSCRASQSVSSYLAWYQQKPGQAPRLLIYDASNRATGIPARFSGSGSGTDFTLTISSLEPEDFAVYYCQQSSNWPRTFGQGTKVEIKR
modifications: R4-1 on Cys 30
- binding activity (% of WT) [1]: 107%

B5: anti-PD-1 antibody 2 heavy chain S32C-R4-1 (antibody, human IgG4 S228P, kappa, V domains shown)
VH: QVQLVESGGGVVQPGRSLRLDCKASGITFSNCGMHWVRQAPGKGLEWVAVIWYDGSKRYYADSVKGRFTISRDNSKNTLFLQMNSLRAEDTAVYYCATNDDYWGQGTLVTVSS
VL: EIVLTQSPATLSLSPGERATLSCRASQSVSSYLAWYQQKPGQAPRLLIYDASNRATGIPARFSGSGSGTDFTLTISSLEPEDFAVYYCQQSSNWPRTFGQGTKVEIKR
modifications: R4-1 on Cys 32
- binding activity (% of WT) [1]: 86.8%

B6: anti-PD-1 antibody 2 heavy chain Y53C-R4-4 (antibody, human IgG4 S228P, kappa, V domains shown)
VH: QVQLVESGGGVVQPGRSLRLDCKASGITFSNSGMHWVRQAPGKGLEWVAVIWCDGSKRYYADSVKGRFTISRDNSKNTLFLQMNSLRAEDTAVYYCATNDDYWGQGTLVTVSS
VL: EIVLTQSPATLSLSPGERATLSCRASQSVSSYLAWYQQKPGQAPRLLIYDASNRATGIPARFSGSGSGTDFTLTISSLEPEDFAVYYCQQSSNWPRTFGQGTKVEIKR
modifications: R4-4 on Cys 53
- binding activity (% of WT) [1]: 91.6%

B7: anti-CTLA-4 antibody heavy chain D54C (antibody, human IgG1, kappa, V domains shown)
VH: QVQLVESGGGVVQPGRSLRLSCAASGFTFSSYTMHWVRQAPGKGLEWVTFISYCGNNKYYADSVKGRFTISRDNSKNTLYLQMNSLRAEDTAIYYCARTGWLGPFDYWGQGTLVTVSS
VL: not shown
- binding activity (OD after mutation/OD wild type) [2]: 70 to 90%

B8: anti-CTLA-4 antibody heavy chain D106C (antibody, human IgG1, kappa, V domains shown)
VH: QVQLVESGGGVVQPGRSLRLSCAASGFTFSSYTMHWVRQAPGKGLEWVTFISYDGNNKYYADSVKGRFTISRDNSKNTLYLQMNSLRAEDTAIYYCARTGWLGPFCYWGQGTLVTVSS
VL: not shown
- binding activity vs wild type [3]: < 70%

B9: anti-CTLA-4 antibody heavy chain D106C-R4-3 (antibody, human IgG1, kappa, V domains shown)
VH: QVQLVESGGGVVQPGRSLRLSCAASGFTFSSYTMHWVRQAPGKGLEWVTFISYDGNNKYYADSVKGRFTISRDNSKNTLYLQMNSLRAEDTAIYYCARTGWLGPFCYWGQGTLVTVSS
VL: not shown
modifications: R4-3 on Cys 106
- binding activity (% of WT) [4]: 87.6%

B10: anti-CTLA-4 antibody heavy chain K58C (antibody, human IgG1, kappa, V domains shown)
VH: QVQLVESGGGVVQPGRSLRLSCAASGFTFSSYTMHWVRQAPGKGLEWVTFISYDGNNCYYADSVKGRFTISRDNSKNTLYLQMNSLRAEDTAIYYCARTGWLGPFDYWGQGTLVTVSS
VL: not shown
- binding activity vs wild type [3]: < 70%

B11: anti-CTLA-4 antibody heavy chain K58C-R4-7 (antibody, human IgG1, kappa, V domains shown)
VH: QVQLVESGGGVVQPGRSLRLSCAASGFTFSSYTMHWVRQAPGKGLEWVTFISYDGNNCYYADSVKGRFTISRDNSKNTLYLQMNSLRAEDTAIYYCARTGWLGPFDYWGQGTLVTVSS
VL: not shown
modifications: R4-7 on Cys 58
- binding activity (% of WT) [4]: 87.6%

B12: anti-CTLA-4 antibody heavy chain K65C (antibody, human IgG1, kappa, V domains shown)
VH: QVQLVESGGGVVQPGRSLRLSCAASGFTFSSYTMHWVRQAPGKGLEWVTFISYDGNNKYYADSVCGRFTISRDNSKNTLYLQMNSLRAEDTAIYYCARTGWLGPFDYWGQGTLVTVSS
VL: not shown
- binding activity vs wild type [3]: < 70%

B13: anti-CTLA-4 antibody heavy chain K65C-R4-7 (antibody, human IgG1, kappa, V domains shown)
VH: QVQLVESGGGVVQPGRSLRLSCAASGFTFSSYTMHWVRQAPGKGLEWVTFISYDGNNKYYADSVCGRFTISRDNSKNTLYLQMNSLRAEDTAIYYCARTGWLGPFDYWGQGTLVTVSS
VL: not shown
modifications: R4-7 on Cys 65
- binding activity (% of WT) [4]: 96.2%
